# Test results taken from patent US8084213, “Selection” (Domantis Limited).
# T1: scArc-HA (pIE3 series, single-chain Arc repressor dimer) (Phage P22)
# T1 chain: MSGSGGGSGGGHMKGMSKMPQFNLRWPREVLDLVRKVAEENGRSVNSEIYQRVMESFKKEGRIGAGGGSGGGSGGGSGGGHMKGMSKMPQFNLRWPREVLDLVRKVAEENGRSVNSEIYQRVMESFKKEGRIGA
# B1: Arc operator, one copy, on linear genetic element (dsDNA)
# DNA 1: ATGATAGAAGCACTCTACTAT
# DNA 2: ATAGTAGAGTGCTTCTATCAT
# How the values were obtained:
# Vh(DOM1h-10-27)-scArc-HA = Vh(DOM1h-10-27)-scArc-HA (Phage P22 / human Vh); test: DNA co-captured on protein A and human TNF receptor, not BSA; conditions: tags: N-terminal Vh dAb fusion, C-terminal HA; chain copies: 2 scArc per operator (inferred)
# Experimental: (§1) The functional activity of the V_H(DOM1h-10-27)-scArc fusion protein can be assessed by PCR amplification of the DNA co-captured during the V_H-dependent immunoprecipitation of the in vitro translation reaction product. As in the case of $V_\kappa$-scArc fusion constructs, 1 µl of 1.7 nM template in 0.2 mg/ml tRNA is added to 25 µl EcoPro T7 in vitro translation mix (Novagen), supplemented with 0.75 µl of 100 mM oxidized glutathione (Sigma), and incubated at 25° C. for four hours. During the translation reaction the streptavidin-coated PCR tubes, cut from Strep Thermofast 96-well plates (Abgene), are first incubated at room temperature for three hours with 50 µl of at least 40 nM biotinylated target protein in PBS. The coating buffer is thereafter removed and any remaining free biotin-binding sites are blocked with a 15 min pulse of 50 µg/ml biotinylated BSA in PBS. The precoated wells are thereafter three times washed with PBS and then filled with 100 µl of binding buffer C+ (100 mM KCl, 20 mM Tris, 5 mM MgCl_2, 0.05% Tween 20, 0.05 mM EDTA, 1% BSA). Upon completion of the translation reaction the products are diluted in Buffer C+ and applied to the pre-coated and blocked PCR tubes, allowed to bind for 30 min at room temperature and washed 4 times with 150 µl of Buffer C+. […]
# [1] = target: T1, scArc-HA (pIE3 series, single-chain Arc …); test: co-capture of DNA on anti-HA 3F10 surface, PCR detection; conditions: tags: C-terminal HA; chain copies: 2 scArc per operator (stated)
# Experimental: as §1, with “In a typical solution expression experiment” for “The functional activity of the V_H(DOM1h-10-27)-scArc fusion protein can be assessed by PCR amplification of the DNA co-captured during the V_H-dependent immunoprecipitation of the in vitro translation reaction product. As in the case of $V_\kappa$-scArc fusion constructs,”, “μl” for “µl”, “Novagen),” for “(Novagen),”, “μg/ml” for “µg/ml”, “pre-coated” for “precoated”
binder,measurement,setting,value
B1,binding result,Vh(DOM1h-10-27)-scArc-HA,binds
same,binding result,[1],binds
